# Test results published in the supplement of paper PMC7125110.
# ± gives the standard error. For some assays here: Fewer inactive variants are shown than the library holds.
# B1: glmS ribozyme (parent)
# chain: AUAAAAGCGCCAGAACUACAGAAAUGUAGUUGACGAGGAGGAGGUUUAUCGAAUUUUCGGCGGAUGCCUCCAAA
# Legend:
# Conditions in all cases: with glucosamine-6-phosphate
# glucosamine-6-phosphate [1] = variants of: B1; assay: kcat; higher = faster cleavage; RNA array
# Procedure, shortened: (§1)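 Barcoded glmS ribozyme variants on sequenced MiSeq chips were transcribed in situ by E. coli RNA polymerase and tracked through a hybridised Cy3 probe at 37 °C. Glucosamine-6-phosphate (40 μM to 10 mM) in HEPES/KCl/Mg(OAc)2 buffer was flowed in, and tiles were imaged over ~14 h. Signals were normalised to baseline and to non-cleaving reference variants; per-tile medians were fit to one- or two-exponential decays to give kobs. kcat and KM came from weighted Michaelis–Menten fits across concentrations.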
# glucosamine-6-phosphate [2] = variants of: B1; assay: self-cleavage kobs at 640 uM GlcN6P; higher = faster cleavage; RNA array
# Procedure, shortened: as §1
# glucosamine-6-phosphate [3] = variants of: B1; assay: self-cleavage kobs at 2500 uM GlcN6P; higher = faster cleavage; RNA array
# Procedure, shortened: as §1
# glucosamine-6-phosphate [4] = variants of: B1; assay: self-cleavage kobs at 10000 uM GlcN6P; higher = faster cleavage; RNA array
# Procedure, shortened: as §1
# glucosamine-6-phosphate [5] = variants of: B1; assay: KM; higher = weaker cofactor use; RNA array
# Procedure, shortened: as §1
# glucosamine-6-phosphate [6] = variants of: B1; assay: self-cleavage kobs at 40 uM GlcN6P; higher = faster cleavage; RNA array
# Procedure, shortened: as §1
# glucosamine-6-phosphate [7] = variants of: B1; assay: self-cleavage kobs at 160 uM GlcN6P; higher = faster cleavage; RNA array
# Procedure, shortened: as §1
Variant,kcat (glucosamine-6-phosphate [1]),self-cleavage kobs at 640 uM GlcN6P (glucosamine-6-phosphate [2]),self-cleavage kobs at 2500 uM GlcN6P (glucosamine-6-phosphate [3]),self-cleavage kobs at 10000 uM GlcN6P (glucosamine-6-phosphate [4]),KM (glucosamine-6-phosphate [5]),self-cleavage kobs at 40 uM GlcN6P (glucosamine-6-phosphate [6]),self-cleavage kobs at 160 uM GlcN6P (glucosamine-6-phosphate [7])
AUAAAAGCGCCAGAACUACAGAAAUGUAGUUGUCGAGGAGGAGGUUUAUCGAAAUUUCGGCGGAUGCCUCCAAA,0.000116 ± 2e-05 s⁻¹,6.35e-05 ± 1.7e-05 s⁻¹,7.03e-05 ± 1.2e-05 s⁻¹,0.000117 ± 1.6e-05 s⁻¹,,,
AUAAAAGCGCCAGAACUACAGAAAUGUAGUUGACGAGGAGGAUGUUUAUCGAAUUUUCGGCGGAUGCGUCCAAA,0.00617 ± 0.0012 s⁻¹,0.00304 ± 0.00052 s⁻¹,0.00416 ± 0.0011 s⁻¹,0.00756 ± 0.0013 s⁻¹,527 ± 180 µM,0.000533 ± 9.6e-05 s⁻¹,0.00129 ± 0.00028 s⁻¹
AUAAAAGCGCCAGAACUACAGAAAUGUAGUUGACGAGGAGGAGGUUCAUCGAAUUUUUGGCGGAUGCCUCCAAA,0.000109 ± 7.3e-06 s⁻¹,,,4.92e-05 ± 8.1e-06 s⁻¹,,,
AUAAAAGCGCCGGAACUACAGAAAUGUAGUUGACGAGGAGGAGGUUCAUCGAAUUUUCGGCGGAUGCCUCCAAA,0.000813 ± 9.1e-05 s⁻¹,0.000111 ± 1.5e-05 s⁻¹,0.000412 ± 8.3e-05 s⁻¹,0.000577 ± 6.1e-05 s⁻¹,3820 ± 720 µM,,3.52e-05 ± 1.3e-05 s⁻¹
AUAAAAGCGCCAGAACUACAGAAAUGUAGUUAACGAGGAGGAGGUUUAUCGAAUUUACGGCGGAUGCCUCCAAA,3.77e-05 ± 3.1e-06 s⁻¹,,,2.89e-05 ± 9.1e-06 s⁻¹,3000 ± 970 µM,,< 1e-05 s⁻¹
AUAAAAGCGCCAGAACUACAGAAAUGUAGUUGUCGAGGAGGAGGUUUAUCGAAUCUUCGGAGGAUGCCUCCAAA,1.69e-05 ± 5.1e-06 s⁻¹,,,,,,
AUAAAAGCGCCAGAACUACAGAAAUGUAGUUGACGAGGAGGAGGUUUAACGAAUUUUCGGCGGAUGCAUCCAAA,1.25e-05 ± 6e-06 s⁻¹,,,< 1e-05 s⁻¹,,< 1e-05 s⁻¹,
AUAAAAGCGCCAGGACUACAGAAAUGUAGUUGACGAGGAGGAGGUUUAUCGAAUUUUCGGCGGAUGCCUUCAAA,0.0485 ± 0.02 s⁻¹,0.0183 ± 0.0066 s⁻¹,,,1020 ± 470 µM,0.00188 ± 0.00021 s⁻¹,0.00502 ± 0.002 s⁻¹
AUAAAAGCGCCGGAACUACAGAAAUGUAGUUGACGAUGAGGAGGUUUAUCGAAUUUUCGGCGGAUGCCUCCAAA,< 1e-05 s⁻¹,,,< 1e-05 s⁻¹,,,
AUAAAAGCGCCAGAACUACAGAAAUGUAAUUGACGAGGAGGAGGUUUAUCGAAUUUUCGGCGGAUGUCUCCAAA,0.000866 ± 0.00021 s⁻¹,0.00034 ± 5.8e-05 s⁻¹,0.00056 ± 0.00012 s⁻¹,0.00104 ± 0.00017 s⁻¹,742 ± 320 µM,4.43e-05 ± 8.6e-06 s⁻¹,0.000247 ± 5.1e-05 s⁻¹
AUAAAAGCGCCAGUACUACAGAAAUGUAGUUGUCGAGGAGGGGGUUUAUCGAAUUUUCGGCGGAUGCCUCCAAA,9.54e-05 ± 3.1e-05 s⁻¹,,7.08e-05 ± 1.9e-05 s⁻¹,7.49e-05 ± 2.6e-05 s⁻¹,,,
AUAAAAGCGCCAGAACUACAGAAAUGUAGUUGACGAGGAGGAGGUUUAUCGAAUCCUCGGCGGAUGCCUCCAAA,9.63e-05 ± 1.9e-05 s⁻¹,4.92e-05 ± 2e-05 s⁻¹,5.28e-05 ± 1e-05 s⁻¹,8.84e-05 ± 1.5e-05 s⁻¹,,,
AUAAAAGCGCCAGAACUACAGAAAUGUAGUUGACGAGGAGGAGGUUUAUCGAAGUAUCGGCGGAUGCCGCCAAA,5.38e-05 ± 1.1e-05 s⁻¹,7.97e-05 ± 1.8e-05 s⁻¹,4.21e-05 ± 1.1e-05 s⁻¹,6e-05 ± 1.8e-05 s⁻¹,,4.11e-05 ± 1.9e-05 s⁻¹,
AUAAAAGCGCCAGCACUACAGAAAUGUAGUUGACGAGGAGGAGGUUUAUCGAAUUUUAGGCGGAUGCCUCCAAA,0.000221 ± 1.4e-05 s⁻¹,3.29e-05 ± 1.1e-05 s⁻¹,0.000102 ± 1.6e-05 s⁻¹,0.000165 ± 1.7e-05 s⁻¹,3250 ± 500 µM,,
AUAAAAGCGCCAGAACUACAGAAAUGUAGUUGACGAGGAGGAGGUUUGUCGAAUUUUUGGCGGAUGCCUCCAAA,1.71e-05 ± 2.1e-06 s⁻¹,,,,,,
AUAAAAGCGCCAGAACUACAGAAAUGUAGUUGACGAGGCGGAGGUUUAUCGGAUUUUCGGCGGAUGCCUCCAAA,0.000297 ± 5.1e-05 s⁻¹,4.74e-05 ± 8.3e-06 s⁻¹,0.00017 ± 2.1e-05 s⁻¹,0.000217 ± 2.6e-05 s⁻¹,2850 ± 940 µM,,
AUAAAAGCGCCAGAACUACAGAAAUGUAGUUGACGAGGAGGAGGUUUAUAGAAUUUUCGGCGGAUGGCUCCAAA,2.95e-05 ± 1.1e-05 s⁻¹,,4.73e-05 ± 9.8e-06 s⁻¹,,,1.98e-05 ± 9e-06 s⁻¹,
AUAAAAGCGCCAGAACUACAGAAAUGUAGUUGACGAGGAGGAGGUUUAUCGAACUUUCGGCGGAUGCCUCCAAA,0.0582 ± 0.0055 s⁻¹,0.0121 ± 0.0007 s⁻¹,0.0274 ± 0.0017 s⁻¹,0.051 ± 0.0026 s⁻¹,2290 ± 240 µM,0.00101 ± 1.9e-05 s⁻¹,0.00345 ± 0.00027 s⁻¹
